± gives the uncertainty stated by the source.
B1: DnaJ homolog subfamily C member 2, residues 451 to 503; numbered along this chain, Q99543 (parent)
chain: SKNWSEDDLQLLIKAVNLFPAGTNSRWEVIANYMNIHSSSGVKRTAKDVIGKA

Variants of: B1
Assay: abundance fitness (aPCA) (normalised: wild type 0, dead -1); higher = more abundant; growth selection in yeast, the domain comes from the species named
Details: Homo sapiens

Row | Variant | abundance fitness
1 | SKNWSEDDLQLLIKAVNLFPAGTNSRWEVNANYMNIHSSSGVKRTAKDVIGKA | -0.999 ± 0.24
2 | SKNWSEDDLQLLIKAVNLFPAGTNSRWEVPANYMNIHSSSGVKRTAKDVIGKA | -0.94 ± 0.11
3 | SKNWSEDDLQLLIKAVNLFPAGTNSRWEVQANYMNIHSSSGVKRTAKDVIGKA | -1 ± 0.1
4 | SKNWSEDDLQLLIKAVNLFPAGTNSRWEVRANYMNIHSSSGVKRTAKDVIGKA | -0.951 ± 0.063
5 | SKNWSEDDLQLLIKAVNLFPAGTNSRWEVSANYMNIHSSSGVKRTAKDVIGKA | -0.947 ± 0.072
6 | SKNWSEDDLQLLIKAVNLFPAGTNSRWEVTANYMNIHSSSGVKRTAKDVIGKA | -0.987 ± 0.12
7 | SKNWSEDDLQLLIKAVNLFPAGTNSRWEVVANYMNIHSSSGVKRTAKDVIGKA | -0.019 ± 0.057
8 | SKNWSEDDLQLLIKAVNLFPAGTNSRWEVWANYMNIHSSSGVKRTAKDVIGKA | -0.839 ± 0.067
9 | SKNWSEDDLQLLIKAVNLFPAGTNSRWEVYANYMNIHSSSGVKRTAKDVIGKA | -0.923 ± 0.13
10 | SKNWSEDDLQLLIKAVNLFPAGTNSRWEVIDNYMNIHSSSGVKRTAKDVIGKA | -0.831 ± 0.11
11 | SKNWSEDDLQLLIKAVNLFPAGTNSRWEVIENYMNIHSSSGVKRTAKDVIGKA | -0.859 ± 0.097
12 | SKNWSEDDLQLLIKAVNLFPAGTNSRWEVIFNYMNIHSSSGVKRTAKDVIGKA | -1.01 ± 0.13
13 | SKNWSEDDLQLLIKAVNLFPAGTNSRWEVIGNYMNIHSSSGVKRTAKDVIGKA | -0.607 ± 0.053
14 | SKNWSEDDLQLLIKAVNLFPAGTNSRWEVIHNYMNIHSSSGVKRTAKDVIGKA | -0.919 ± 0.13
15 | SKNWSEDDLQLLIKAVNLFPAGTNSRWEVIINYMNIHSSSGVKRTAKDVIGKA | -0.82 ± 0.12
16 | SKNWSEDDLQLLIKAVNLFPAGTNSRWEVIKNYMNIHSSSGVKRTAKDVIGKA | -0.357 ± 0.085
17 | SKNWSEDDLQLLIKAVNLFPAGTNSRWEVILNYMNIHSSSGVKRTAKDVIGKA | -0.463 ± 0.059
18 | SKNWSEDDLQLLIKAVNLFPAGTNSRWEVIMNYMNIHSSSGVKRTAKDVIGKA | -0.66 ± 0.11
19 | SKNWSEDDLQLLIKAVNLFPAGTNSRWEVINNYMNIHSSSGVKRTAKDVIGKA | -0.768 ± 0.16
20 | SKNWSEDDLQLLIKAVNLFPAGTNSRWEVIPNYMNIHSSSGVKRTAKDVIGKA | -0.837 ± 0.1
21 | SKNWSEDDLQLLIKAVNLFPAGTNSRWEVIQNYMNIHSSSGVKRTAKDVIGKA | -0.549 ± 0.09
22 | SKNWSEDDLQLLIKAVNLFPAGTNSRWEVIRNYMNIHSSSGVKRTAKDVIGKA | -0.384 ± 0.056
23 | SKNWSEDDLQLLIKAVNLFPAGTNSRWEVISNYMNIHSSSGVKRTAKDVIGKA | -0.179 ± 0.061
24 | SKNWSEDDLQLLIKAVNLFPAGTNSRWEVITNYMNIHSSSGVKRTAKDVIGKA | 0.051 ± 0.066
25 | SKNWSEDDLQLLIKAVNLFPAGTNSRWEVIVNYMNIHSSSGVKRTAKDVIGKA | -0.397 ± 0.057

Row | Variant | abundance fitness
26 | SKNWSEDDLQLLIKAVNLFPAGTNSRWEVIWNYMNIHSSSGVKRTAKDVIGKA | -0.857 ± 0.077
27 | SKNWSEDDLQLLIKAVNLFPAGTNSRWEVIYNYMNIHSSSGVKRTAKDVIGKA | -1.08 ± 0.15
28 | SKNWSEDDLQLLIKAVNLFPAGTNSRWEVIAAYMNIHSSSGVKRTAKDVIGKA | -0.04 ± 0.063
29 | SKNWSEDDLQLLIKAVNLFPAGTNSRWEVIACYMNIHSSSGVKRTAKDVIGKA | -0.524 ± 0.11
30 | SKNWSEDDLQLLIKAVNLFPAGTNSRWEVIADYMNIHSSSGVKRTAKDVIGKA | -0.016 ± 0.072
31 | SKNWSEDDLQLLIKAVNLFPAGTNSRWEVIAEYMNIHSSSGVKRTAKDVIGKA | 0.061 ± 0.07
32 | SKNWSEDDLQLLIKAVNLFPAGTNSRWEVIAFYMNIHSSSGVKRTAKDVIGKA | -0.542 ± 0.14
33 | SKNWSEDDLQLLIKAVNLFPAGTNSRWEVIAGYMNIHSSSGVKRTAKDVIGKA | -0.2 ± 0.054
34 | SKNWSEDDLQLLIKAVNLFPAGTNSRWEVIAHYMNIHSSSGVKRTAKDVIGKA | 0.076 ± 0.09
35 | SKNWSEDDLQLLIKAVNLFPAGTNSRWEVIAIYMNIHSSSGVKRTAKDVIGKA | -0.66 ± 0.11
36 | SKNWSEDDLQLLIKAVNLFPAGTNSRWEVIAKYMNIHSSSGVKRTAKDVIGKA | -0.083 ± 0.08
37 | SKNWSEDDLQLLIKAVNLFPAGTNSRWEVIALYMNIHSSSGVKRTAKDVIGKA | -0.315 ± 0.058
38 | SKNWSEDDLQLLIKAVNLFPAGTNSRWEVIAMYMNIHSSSGVKRTAKDVIGKA | -0.302 ± 0.088
39 | SKNWSEDDLQLLIKAVNLFPAGTNSRWEVIAPYMNIHSSSGVKRTAKDVIGKA | -0.93 ± 0.11
40 | SKNWSEDDLQLLIKAVNLFPAGTNSRWEVIAQYMNIHSSSGVKRTAKDVIGKA | -0.103 ± 0.089
41 | SKNWSEDDLQLLIKAVNLFPAGTNSRWEVIARYMNIHSSSGVKRTAKDVIGKA | -0.095 ± 0.057
42 | SKNWSEDDLQLLIKAVNLFPAGTNSRWEVIATYMNIHSSSGVKRTAKDVIGKA | -0.13 ± 0.077
43 | SKNWSEDDLQLLIKAVNLFPAGTNSRWEVIAWYMNIHSSSGVKRTAKDVIGKA | -0.38 ± 0.071
44 | SKNWSEDDLQLLIKAVNLFPAGTNSRWEVIAYYMNIHSSSGVKRTAKDVIGKA | -0.507 ± 0.11
45 | SKNWSEDDLQLLIKAVNLFPAGTNSRWEVIANAMNIHSSSGVKRTAKDVIGKA | -0.752 ± 0.082
46 | SKNWSEDDLQLLIKAVNLFPAGTNSRWEVIANCMNIHSSSGVKRTAKDVIGKA | -0.996 ± 0.12
47 | SKNWSEDDLQLLIKAVNLFPAGTNSRWEVIANDMNIHSSSGVKRTAKDVIGKA | -0.977 ± 0.12
48 | SKNWSEDDLQLLIKAVNLFPAGTNSRWEVIANEMNIHSSSGVKRTAKDVIGKA | -0.805 ± 0.091
49 | SKNWSEDDLQLLIKAVNLFPAGTNSRWEVIANGMNIHSSSGVKRTAKDVIGKA | -0.981 ± 0.072
